Source: doi:10.1101/2024.01.22.576751 (bioRxiv, 2024)

Target: the molecule itself
Assay: cryo-EM structure

B1: Escherichia coli mechanosensitive channel of small conductance MscS, wild type (natural protein, E. coli, UniProt P0C0S1 1-286, looked up)
chain: MEDLNVVDSINGAGSWLVANQALLLSYAVNIVAALAIIIVGLIIARMISNAVNRLMISRKIDATVADFLSALVRYGIIAFTLIAALGRVGVQTASVIAVLGAAGLAVGLALQGSLSNLAAGVLLVMFRPFRAGEYVDLGGVAGTVLSVQIFSTTMRTADGKIIVIPNGKIIAGNIINFSREPVRRNEFIIGVAYDSDIDQVKQILTNIIQSEDRILKDREMTVRLNELGASSINFVVRVWSNSGDLQNVYWDVLERIKREFDAAGISFPYPQMDVNFKRVKEDKAA
With B1 the “stoichiometry N” value was 7.
